Test results: a protein production outcome set (Wang et al. 2014)

Experiment: label from the status in PepcDB records
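Also: failed if final PepcDB status was selected cloned or expressed and not failed if soluble or beyond.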

Sequence | protein production
MTDYFHLHFNKGEFNAENLFIELKGNFAVYGSRWYFGESIETLKGTARTLDKADGAISLEDGIISRNGIALLDDSQGFIWDEQSGYIERENQIDLYFFAYGHDYRGAIRDFYHLTGSTPLLPRYALGNWWSRYWPYTSDEYLDLIDRFETEKIPLSIGVLDMDWHITDIPARFGSGWTGYSWNRNLIPNPEQLLQQLHDRKLKLSLNVHPADGIRAYEEAYPQIAKRLGLNVELEEPAIFDFFNPSFREAYFKDVHYELEKQGVDFWWIDWQQGTQGMLDPLWLLNHYHYQDSCKNAEGGLILSRYAGPGSHRYPVGFSGDTIISWNSLRFQPYFTATASNIGYSWWSHDIGGHMLGDYDEELQTRWLQFGVFSPITRLHSSRSPFNSKEPWFFSETTSKIMKKYLRLRHQMIPYLYTMNVQTHEEGAPLISPIYYFYPENDESYNVPNQYFFGTELMVAPIVEKMDLTFQSAKVDVWFPEGEWYDFFSEKKYTGGVKLSVYRDISTTPVFAKSGAIIPLVGSEIGMGVDLPEVVDWYVFPGKQHSFEMLEDQNGQRYKTRLSIDWEMGMVELALQGDSSIVPSNRKHRIHFKGTNVSIIELPNKNDTAKFEWKDNKRTSLNDEVFRLLKTASLPYELKDRLLNQFINAKNSHDLMNILHHQDKELRGRLLEMIFTSQNLEHHHHHH | failed
MGHHHHHHSHGQLVRGKVCEYSTDGAYIDIGGKAPAFLPKREAALHAVLDLEAHLPKDEELEFLVIRDQNEDGQVTVSLRA | failed
MEKFQENNILEDKKVCINENEEAWNKETYNAWIKRFGTAKEAAEKIKSMPEKKLNVLLDKFGDVKGKKIFNLMGSNGNKAVALALLGADVTVVDFSEGNRRYALDLAEACGVKINFILSDVLRMPKEVMSGDYDIVFAEMGILHYFSDLSPFMNVIHSLLKDGGKAVLRDFHPVSTKLITSRGSTAKVRKHKVTGDYFDTSLEEKEVAYSKYLEEGEVEKVFLRKWNLGEIVTAVANTGLKIESLTEEPNLSSDVFDKGIPKTFTIVARK | failed
MLLDKIQNLIIQSDISIFQSMKKMDEEKVKLLFVFRGDCFVGILTIGDIQRAIIKQNDTSMQINNILDQNKVFAYKGESLEIIKNKMIHLRAECMPILDSKGELVDVLFWKDLFIDEVRVDDRKIDLPVVIMAGGKGTRLKPLTNVIPKPLIPIGDKTILEAILDQFESIGCSKFYMSVNYKYDILKFYLAQLDHKYDIRFFKEDKPLGTIGSVSLLKDKISTPFFVSNCDIIIDQDYRDVYDYHINNSNDLTIVTAVKRTRIPYGVIETIENGLMTELIEKPEFTYMINSGVYILQPELINEIPENELFHITHLMEKVKSRGGKIGCFPVSEKSWTDIGEWNEYLKLLGILEHHHHHH | failed
MPKILWKSLHLCFPSNLTKCYSSPCIPPSSADPDGIIQPNRPSIVLLNNFNLLYHNDNHHHPHRVIDLPSSSTTTTPAATSSSSTSSYESDISPDVSAAFASRRFFFSSPGRSNAITDSPEPRSREFSDNYDDATITSTKKKKKKVYDNSVTTTTTRLISGGTAVTQHVDSPDPLTDFRRSMQEMIDAAIDAGELSRDPNDGYDFLDELLLTYLSLNPADTHKFVIRAFSDILVSLLSEERRIC | failed
MMPDKKGYIIDIDGVIGKSVTPIPEGVEGVKKLKELGKKIIFVSNNSTRSRRILLERLRSFGLEVGEDEILVATYATARFIAREKPNAKVFTTGEEGLIEELRLAGLEIVDYDEAEYLVVGSNRKINFELMTKALRACLRGIRYIATNPDRIFPAEDGPIPGTGMIIGALYWMTGREPDVVVGKPSEVIMREALDILGLDAKDVAVVGDQIDVDVAAGKAIGAETVLVLTGVTTRENLDQMIERHGLKPDYVFNSLKDMVEALEG | not failed
MISFSVMALVFGVVFLAELPDKTALAGLVLGTRYRASYVFAGVAAAFALHVALAVAAGSVLTLLPQQIVHALTGVLFLGGAAVLLMKKGEGEEEIRKPENQSFWKVSSAGFMLILVAEFGDLTQIMTANLAARYDDPLSVGLGAVLALWAVAGLGIVGGRALMKRVPLRLITKVAALLMLALGAWSLYEAVAG | failed
MTETIKCIGCGVEIQTEDKNEVGYAPASSLEKEQVICQRCFRLKHYNEIQDVSLTDDDFLRILNGIGKSDALVVKIVDIFDFNGSWLPGLHRFVGNNKVLLVGNKADLIPKSVKHDKVKHWMRYSAKQLGLKPEDVFLISAAKGQGIAELADAIEYYRGGKDVYVVGCTNVGKSTFINRMIKEFSDETENVITTSHFPGTTLDLIDIPLDEESSLYDTPGIINHHQMAHYVGKQSLKLITPTKEIKPMVFQLNEEQTLFFSGLARFDYVSGGRRAFTCHFSNRLTIHRTKLEKADELYKNHAGDLLSPPTPEELENMPELVKYEFNIREPKTDVVFSGLGWVTVNEPGAKIVAHVPKGVSVSLRKSLI | not failed
MDKQSERNESKLFISNMVESAIRIGLIFVLLMFTYDIIRPFILPVIWGAIIAVALLPLTKKLQRAYGGRRGLAATTIVLLGIALLVTPLVMVSGSIVDGATHALDVLQNGQVKIPGPKASVADWPLVGDKLYEVWTLFATNLEQAIQTFMPQIKSALTSLLGMVGGVLGSLLLSILSLAIAAGFMTYSESLASGLQTIAIRTAGENAKSWTTLIAATIKSVLLGVVGVAAIQALLIGAGFFVFGVPAAGLLTLILMILCIAQLPALLAVLPVIGYMYMTQDSTTATMFTVWAVVGALSENLLKPMFMGRGVDVPMPVILLGAIGGMLFYGIVGLFLGAVILAIWYELFVWWLSIEKAQQQEEMAELKEEEEQTESGHGAGI | not failed
ELHAELVKRQHLETFLKTQIESELVDVYFQPIIETRTGNVVKFEALARFYHENSEYSTQEMISIIEDLELIAALDDVVCQTALKQWSHLQKIYGENIGLSINRSLNTKLDSLQVLQRSLDLIKASDVNPKLVTIELTETAYFEQDEEHAFALEQIRQEGIQIAIDDFGTGYSSFSYLEEGQFDVLKIDRKFVKNIHEGSTSYNIVKTITDLAHKLNVEVVAEGVESQRELEVLAGIGVDYMQGFLFSQA | failed
DYIEMKVPAQPEYVGIIRLTLSGVASRMGYTYDEIEDLKIAVSEACTNAVQHAYKEDKNGEVSIRFGVFEDRLEVIVADEGDSFDFDQKQQDLGPYTPSHTVDQLSEGGLGLYLMETLMDEVRVQNHSGVTVAMTKYLNGERVDHDTT | failed
MRRLNLILLLSAVTAALAFVISCKETNAERLEKMCGEWVSTGGKPPFTLWEEDGRYRVTVMHRNHTGGSEAETYLVRETEGVLFIETGFAVMMDYDREKDRIRLSPGGEYRRKSDGTLKQ | failed
MGAPPPANEDDRLAALHSYNILDTAPEPLYDDITAAAAQLCRTPMALISLIDQDRQWFKSRVGMQPAETPRDLAFCAHAILQPDQMMEVGDTFVDPRFARNALVTGGPQIRFYAGAPLLTSDGVALGTLCVLDRAPRTLSDAERTALQALARQVVTTIELRQAARLLEGDALRDPLTDLWNREGLEHMLEDAAPVAKLHGLAFVLIEIDGFKRLKLQFGSDAADATLVQAARCIETEPQEPGGVARIGAAHFCMVLPGADSAQALASVQRLQTTIAAACWPADTISITAGLVCVAPGEPLDSHVLMARARHALLGAARAGRNCVQRFDGWQTDR | failed
MVLLLRYRSLTINLTPLIPKSQKFHTLQSFRNPNFISIPKISASTNNPTTTTNRSISDATKFAKSVLFIPPGVEIEELTDDMVLPGSNIVIGPFAGHSQIKEVEFVKSSARARDCPKDDRPEIAILGRSNVGKSSLINCLVRKKEVALTSKKPGKTQLINHFLVNKSWYIVDLPGYGFAKVSDAAKTDWSAFTKGYFLNRDSLVCVLLLIDASVPPQKIDLDCANWLGRNNVPMTFVFTKCDKMKATKGKRPDENIKAFQQIIRENFKVHPPWILTSSVSGLGRDELLLHMSQLRNYWDQ | failed
MYKIDEVTKQVGLTKRTLRYYEEIGLIHPPERSEGNIRLYTDEDIARIKRIVEAKEVLGITLQEMQHFLSLKERMEQRRNSENPRDREVIQEIKEMLEKQVQTLDEKMEQMQRVKGELEDSLHRAVTFLENTKGE | failed
MGIRHIALFRWNDTVTPDQVEQVITALSKLPAAIPELKNYAFGADLGLAAGNYDFAVVADLDGEDGFRAYQDHPDHRAALAIIAPMLADRVAVQFAL | not failed
MDTTKTIAALFDFDGVIMDTETQYTVFWDEQGRKYLNEEDFGRRIKGQTLTQIYEKYFSDLPEAQQEITAGLNIYEKSMSYEYIPGVEAFIADLRKHGAKIAVVTSSNEEKMQNVYNAHPEFKGMVDRILTGEMFARSKPAPDCFLLGMEIFGATPENSYVFEDSFHGLQAGMTSGATVIGLATTNTREAITGKAHYIIDDFSEMTFEHLLALHR | failed
MRGNDETVLAQALDWLRQGRRVALLTVLGTYGASPRPPGALAAIRDDGVICGSVSGGCVEDDLRREIAEGGVFGAAPSARVRSFGVSVEERQRYRLPCGNSLRVAVETMPDPAQLEALLAAVRQRRCLWRRVDYRDGAAHLLESGPPAAFAEDEAGFSALHGPLWRLLIIGGAELGRYLAQIALTLDYAVTVCEPREEYAAGWEPDGVALSAQMPDDLVLAFGCDERTAVVAVTHDPKLDDLALMEALRLPCHYVGALGSATTTMKRKARLAEHFGLTPAQLDRLHGPVGLPIGSRTPAEIAVSIAADLIASRSACHREGVHGEEGSCRA | failed
SSLLDGLASSPRAPLQSSKARMKKLPKKSQNEKYRLKYLRLRKAAKATVFENAAICDEIARLEEKFLKAKEERRYLLKKLLQLQALTEGEVQAAAPSHSSSLPLTYGVASSVGTIQGAGPISGPSTGAEEPFGKKTKKEKKEKGKENNKLEVLKKTCKKKKMAGGARKLVQPIALDPSGRPVFPIGLGGLTVYSLGEIITDRPGFHDESAIYPVGYCSTRIYASMKCPDQKCLYTCQIKDGGVQPQFEIVPEDDPQNAIVSSSADACHAELLRTISTTMGKLMPNLLPAGADFFGFSHPAIHNLIQSCPGARKCINYQWVKFDVCKPGDGQLPEGLPENDAAMSFEAFQRQIFDEDQNDPLLPGSLDLPELQPAAFVSSYQPMYLTHEPLVDTHLQHLKSPSQGSPIQSSD | not failed
NAKAESVSSGEFNRLRLALLALEARHSKRLGVLILDEIDSNLSGEESEGVARVLQELSRSYQILAISHQPHMPSYAHRHFLVKKEAKGSTIERLDRE | failed
MWKRASRRAGLRRRAVAQPVPPAELGGTAFSSVLEQLELECRAMVSYALKQGLAMSPDLPGRLAELRVMPGASLHGESGARELAGLHRQLVRAIQPATPQAVVLIERERLRGGWLRWLGPIPLIRTLTLTSVGCLASVVGLAMSSLVNERNITLGFLDSSGSTLGWNVMFILACAGLGAAFSALFQAHRYVADATYDPRFDSSYAARMILGLIAG | failed
MQNTIIQKAVNKDLNSILEITKDALNAMKTMNFHQWDENYPNEIVFQEDIQAQELYVFKENDEILGFICINEKFKPEFYKQVIFNKNYDDKAFYLHRLAVKQNAKGKGVAQKLLNFCENFALENHKASLRADTHSKNFPMNSLFKKLDFNFCGNFDIPNYQ | failed
